The record followed here is US20240189442.

The test system of series [1] is T1, SEQ ID NO: 54.
T1 sequence: GSGRNAQV

Series [2] has as its system T2, SEQ ID NO: 50.
T2 sequence: LSGRSDNH

Series [3] deals with T3, SEQ ID NO: 53.
T3 sequence: LGGSGRNAQVRLE

Series [4] has as its system T4, SEQ ID NO: 52.
T4 sequence: LGGSGRSANAILE

For series [5], the system named is T5, SEQ ID NO: 51.
T5 sequence: SGRSA

Chain of Tissue-type Plasminogen Activator (tPA) (P00750 36-562): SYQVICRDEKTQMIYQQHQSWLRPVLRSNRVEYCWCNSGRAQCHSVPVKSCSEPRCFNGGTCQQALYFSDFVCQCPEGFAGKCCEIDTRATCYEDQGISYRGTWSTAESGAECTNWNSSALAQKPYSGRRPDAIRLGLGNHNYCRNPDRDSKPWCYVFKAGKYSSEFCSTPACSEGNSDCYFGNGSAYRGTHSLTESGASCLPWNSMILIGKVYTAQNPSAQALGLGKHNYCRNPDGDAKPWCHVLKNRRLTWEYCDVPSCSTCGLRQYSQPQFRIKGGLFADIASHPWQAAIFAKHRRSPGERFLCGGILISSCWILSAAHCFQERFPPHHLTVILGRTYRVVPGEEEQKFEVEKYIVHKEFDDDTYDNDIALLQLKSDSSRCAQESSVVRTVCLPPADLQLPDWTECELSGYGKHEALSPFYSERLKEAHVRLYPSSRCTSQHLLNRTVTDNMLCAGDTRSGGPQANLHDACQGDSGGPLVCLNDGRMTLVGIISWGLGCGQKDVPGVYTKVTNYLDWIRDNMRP

For the substance Tissue-type Plasminogen Activator (tPA), the Fold of Increase, fluorescence intensity; tPA digestion at 2.25 × 10^-2 mg/mL amounted to 2.6 fold in series [1]; 1.1 fold in series [2]; 1.3 fold in series [3]; 2.1 fold in series [4]; 5.4 fold in series [5]. In addition, the Fold of Increase, fluorescence intensity; tPA digestion at 7.5 × 10^-3 mg/mL is 0.91 fold in series [1]; 0.63 fold in series [2]; 0.73 fold in series [3]; 1.2 fold in series [4]; 2.1 fold in series [5].
Regarding “Urokinase-type Plasminogen Activator (uPA)”, the Fold of Increase, fluorescence intensity (FRET cleavage assay) is 4.7 fold in series [1]; 4.9 fold in series [2]; 3 fold in series [3]; 3.1 fold in series [4]; 9.6 fold in series [5]. Also, the Time to Reach Plateau (hr), fluorescence intensity (FRET cleavage assay) in series [1] came to 1.4 h; in series [2], 1.7 h; in series [3], 1.6 h; in series [4], 1.4 h; in series [5] it was 1.8 h.
